B1: Septum site-determining protein minD homolog, chloroplastic (Arabidopsis thaliana (Mouse-ear cress)), Q9MBA2 (parent)
chain: MASLRLFSTNHQSLLLPSSLSQKTLISSPRFVNNPSRRSPIRSVLQFNRKPELAGETPRIVVITSGKGGVGKTTTTANVGLSLARYGFSVVAIDADLGLRNLDLLLGLENRVNYTCVEVINGDCRLDQALVRDKRWSNFELLCISKPRSKLPMGFGGKALEWLVDALKTRPEGSPDFIIIDCPAGIDAGFITAITPANEAVLVTTPDITALRDADRVTGLLECDGIRDIKMIVNRVRTDMIKGEDMMSVLDVQEMLGLSLLGVIPEDSEVIRSTNRGFPLVLNKPPTLAGLAFEQAAWRLVEQDSMKAVMVEEEPKKRGFFSFFGG
partner: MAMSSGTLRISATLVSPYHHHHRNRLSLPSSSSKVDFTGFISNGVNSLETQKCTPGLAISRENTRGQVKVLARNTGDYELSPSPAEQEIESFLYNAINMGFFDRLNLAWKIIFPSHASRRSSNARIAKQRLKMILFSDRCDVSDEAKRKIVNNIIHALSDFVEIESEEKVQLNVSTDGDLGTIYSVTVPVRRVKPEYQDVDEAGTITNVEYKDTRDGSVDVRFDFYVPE

Variants of: B1
Settings: with mine1_arath MINE1, Q9C4Z7

Variant | effect of a mutation on the interaction
MASLRLFSTNHQSLLLPSSLSQKTLISSPRFVNNPSRRSPIRSVLQFNRKPELAGETPRIVVITSGKGGVGATTTTANVGLSLARYGFSVVAIDADLGLRNLDLLLGLENRVNYTCVEVINGDCRLDQALVRDKRWSNFELLCISKPRSKLPMGFGGKALEWLVDALKTRPEGSPDFIIIDCPAGIDAGFITAITPANEAVLVTTPDITALRDADRVTGLLECDGIRDIKMIVNRVRTDMIKGEDMMSVLDVQEMLGLSLLGVIPEDSEVIRSTNRGFPLVLNKPPTLAGLAFEQAAWRLVEQDSMKAVMVEEEPKKRGFFSFFGG [K72A] | decreasing interaction

— IntAct's records for PubMed 16014621
